This is an account of results in PMC11748629, “Unidirectional MCM translocation away from ORC drives origin licensing” (Nature Communications, 2025).

Common to all, as to details: both partners purified
One experiment has as its target T1, Mcm4 (Saccharomyces cerevisiae, UniProt P30665 1-933).
T1 construct: Mcm4, S. cerevisiae; Subunit of m4 and m7, written alone for the contacts seen in the structures; also called Mcm4 subunit of MCM; source: S. cerevisiae strains yGC216 and yGC226, purified as a subunit of MCM-Cdt1
T1 sequence: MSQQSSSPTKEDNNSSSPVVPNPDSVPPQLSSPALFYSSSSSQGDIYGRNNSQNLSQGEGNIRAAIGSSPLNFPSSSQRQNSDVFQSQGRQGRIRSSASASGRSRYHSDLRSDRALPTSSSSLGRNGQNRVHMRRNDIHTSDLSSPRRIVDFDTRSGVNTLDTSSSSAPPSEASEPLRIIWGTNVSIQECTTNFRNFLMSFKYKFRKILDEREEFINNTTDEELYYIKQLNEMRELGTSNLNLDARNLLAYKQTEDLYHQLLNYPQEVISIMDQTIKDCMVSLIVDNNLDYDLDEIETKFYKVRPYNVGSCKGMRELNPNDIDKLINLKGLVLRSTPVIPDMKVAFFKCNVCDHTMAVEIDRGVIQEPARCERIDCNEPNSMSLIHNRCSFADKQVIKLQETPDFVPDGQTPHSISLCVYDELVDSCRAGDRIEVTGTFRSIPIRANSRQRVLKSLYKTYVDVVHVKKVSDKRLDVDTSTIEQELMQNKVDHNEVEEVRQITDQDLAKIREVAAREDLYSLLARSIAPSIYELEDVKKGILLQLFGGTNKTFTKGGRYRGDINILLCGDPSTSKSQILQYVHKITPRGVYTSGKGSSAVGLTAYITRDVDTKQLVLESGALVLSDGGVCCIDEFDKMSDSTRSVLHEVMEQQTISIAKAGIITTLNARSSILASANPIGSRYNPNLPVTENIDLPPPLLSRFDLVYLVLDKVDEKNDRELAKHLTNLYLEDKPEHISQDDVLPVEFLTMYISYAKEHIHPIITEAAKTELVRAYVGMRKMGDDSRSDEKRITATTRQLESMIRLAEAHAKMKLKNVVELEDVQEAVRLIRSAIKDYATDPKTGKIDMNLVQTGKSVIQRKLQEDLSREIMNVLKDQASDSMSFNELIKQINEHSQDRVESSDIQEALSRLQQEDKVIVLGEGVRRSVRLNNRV
The experiment is described as follows: cryo-EM structure; OC1M^Mcm5RA: 30 nM MH-ARS1-MH DNA, 60 nM ORC, 90 nM Cdc6, 60 nM MCM-Cdt1 (Mcm5 R549A), 2 mM ATP; same buffer; 30 °C, 30 min; conformer 1 at 3.7 Å, conformer 2 at 3.4 Å (Orc1 ATPase domain seen only in conformer 1).

The target in another experiment is T2, Orc1 (Saccharomyces cerevisiae, UniProt P54784 1-914).
T2 construct: Orc1, S. cerevisiae; Subunit of m1, written alone for the contacts seen in the structures; also called Orc1 subunit of ORC; source: S. cerevisiae strain ySD-ORC, purified as a subunit of ORC
T2 sequence: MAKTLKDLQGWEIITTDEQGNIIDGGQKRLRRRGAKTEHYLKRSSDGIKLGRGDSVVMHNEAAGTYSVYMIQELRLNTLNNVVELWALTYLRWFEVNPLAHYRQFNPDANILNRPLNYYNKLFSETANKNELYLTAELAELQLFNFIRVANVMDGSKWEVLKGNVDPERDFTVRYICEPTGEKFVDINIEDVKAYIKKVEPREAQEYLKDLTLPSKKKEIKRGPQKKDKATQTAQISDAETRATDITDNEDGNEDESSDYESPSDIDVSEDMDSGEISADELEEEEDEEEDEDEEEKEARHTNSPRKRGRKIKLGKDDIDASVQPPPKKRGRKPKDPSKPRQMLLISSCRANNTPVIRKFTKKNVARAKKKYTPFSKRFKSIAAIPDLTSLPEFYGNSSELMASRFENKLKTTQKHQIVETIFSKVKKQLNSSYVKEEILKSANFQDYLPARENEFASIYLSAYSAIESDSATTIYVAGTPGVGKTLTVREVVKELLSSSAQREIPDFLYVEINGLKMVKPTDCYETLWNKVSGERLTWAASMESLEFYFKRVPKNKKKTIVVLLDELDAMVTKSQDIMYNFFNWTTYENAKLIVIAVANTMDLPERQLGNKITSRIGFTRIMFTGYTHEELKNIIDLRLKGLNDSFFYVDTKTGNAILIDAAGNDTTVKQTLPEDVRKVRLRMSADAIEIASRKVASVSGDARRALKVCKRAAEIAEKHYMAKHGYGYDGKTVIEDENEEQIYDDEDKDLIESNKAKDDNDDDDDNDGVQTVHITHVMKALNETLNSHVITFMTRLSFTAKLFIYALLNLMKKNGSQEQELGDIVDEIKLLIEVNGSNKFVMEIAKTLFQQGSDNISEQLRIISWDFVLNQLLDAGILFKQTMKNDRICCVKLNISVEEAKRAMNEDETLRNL
The experiment is described as follows: cryo-EM structure; OCCM^Mcm2RA: 30 nM MH-ARS1-MH DNA, 60 nM ORC, 90 nM Cdc6, 60 nM MCM-Cdt1 (Mcm2 R676A), 3 mM ATP; 25 mM HEPES pH 7.6, 100 mM potassium chloride, 10 mM magnesium acetate, 1 mM DTT; 30 °C, 30 min; 3.3 Å consensus, 3.2 Å local refinements.

Another experiment deals with T3, Mcm2 (Saccharomyces cerevisiae, UniProt P29469 1-868).
T3 construct: Mcm2, S. cerevisiae; Subunit of m7, written alone for the contacts seen in OC1M^Mcm5RA; also called Mcm2 subunit of MCM; source: S. cerevisiae strain yGC226, purified as a subunit of MCM-Cdt1
T3 sequence: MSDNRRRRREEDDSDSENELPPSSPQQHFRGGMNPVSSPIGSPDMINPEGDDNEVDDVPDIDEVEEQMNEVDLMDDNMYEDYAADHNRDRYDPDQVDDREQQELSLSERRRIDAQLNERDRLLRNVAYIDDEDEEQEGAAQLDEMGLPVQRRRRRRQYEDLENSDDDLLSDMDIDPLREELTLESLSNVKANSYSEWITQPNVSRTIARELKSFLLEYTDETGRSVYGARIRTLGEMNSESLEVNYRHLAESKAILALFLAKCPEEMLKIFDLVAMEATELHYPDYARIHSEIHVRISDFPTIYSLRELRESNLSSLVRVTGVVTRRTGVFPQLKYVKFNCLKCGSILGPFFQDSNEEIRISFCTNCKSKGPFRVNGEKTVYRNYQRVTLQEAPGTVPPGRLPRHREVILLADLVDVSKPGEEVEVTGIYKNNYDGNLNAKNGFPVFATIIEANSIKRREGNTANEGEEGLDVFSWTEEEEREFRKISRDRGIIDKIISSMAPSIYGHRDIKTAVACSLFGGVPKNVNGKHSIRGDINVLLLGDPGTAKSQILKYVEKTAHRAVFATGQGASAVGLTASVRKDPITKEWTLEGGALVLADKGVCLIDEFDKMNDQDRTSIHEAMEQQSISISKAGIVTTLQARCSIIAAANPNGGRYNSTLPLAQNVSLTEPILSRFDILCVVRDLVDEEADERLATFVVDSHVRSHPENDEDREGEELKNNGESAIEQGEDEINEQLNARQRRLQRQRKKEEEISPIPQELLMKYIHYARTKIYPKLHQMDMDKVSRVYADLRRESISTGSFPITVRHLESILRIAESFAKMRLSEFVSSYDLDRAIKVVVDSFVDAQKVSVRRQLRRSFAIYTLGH
The experiment is described as follows: cryo-EM structure; OC1M^Mcm5RA: 30 nM MH-ARS1-MH DNA, 60 nM ORC, 90 nM Cdc6, 60 nM MCM-Cdt1 (Mcm5 R549A), 2 mM ATP; same buffer; 30 °C, 30 min; conformer 1 at 3.7 Å, conformer 2 at 3.4 Å (Orc1 ATPase domain seen only in conformer 1).

B1: Mcm7 (natural protein, Saccharomyces cerevisiae)
chain: MSAALPSIQLPVDYNNLFNEITDFLVTFKQDTLSSDATRNENEDENLDAENIEQHLLEKGPKYMAMLQKVANRELNSVIIDLDDILQYQNEKFLQGTQADDLVSAIQQNANHFTELFCRAIDNNMPLPTKEIDYKDDVLDVILNQRRLRNERMLSDRTNEIRSENLMDTTMDPPSSMNDALREVVEDETELFPPNLTRRYFLYFKPLSQNCARRYRKKAISSKPLSVRQIKGDFLGQLITVRGIITRVSDVKPAVEVIAYTCDQCGYEVFQEVNSRTFTPLSECTSEECSQNQTKGQLFMSTRASKFSAFQECKIQELSQQVPVGHIPRSLNIHVNGTLVRSLSPGDIVDVTGIFLPAPYTGFKALKAGLLTETYLEAQFVRQHKKKFASFSLTSDVEERVMELITSGDVYNRLAKSIAPEIYGNLDVKKALLLLLVGGVDKRVGDGMKIRGDINVCLMGDPGVAKSQLLKAICKISPRGVYTTGKGSSGVGLTAAVMKDPVTDEMILEGGALVLADNGICCIDEFDKMDESDRTAIHEVMEQQTISISKAGINTTLNARTSILAAANPLYGRYNPRLSPLDNINLPAALLSRFDILFLMLDIPSRDDDEKLAEHVTYVHMHNKQPDLDFTPVEPSKMREYIAYAKTKRPVMSEAVNDYVVQAYIRLRQDSKREMDSKFSFGQATPRTLLGIIRLSQALAKLRLADMVDIDDVEEALRLVRVSKESLYQETNKSKEDESPTTKIFTIIKKMLQETGKNTLSYENIVKTVRLRGFTMLQLSNCIQEYSYLNVWHLINEGNTLKFVDDGTMDTDQEDSLVSTPKLAPQTTASANVSAQDSDIDLQDA
notes: Mcm7, S. cerevisiae; Subunit of m4 and m7, written alone for the contacts seen in the structures; also called Mcm7 subunit of MCM; source: S. cerevisiae strains yGC216 and yGC226, purified as a subunit of MCM-Cdt1
In the case of B1, the binding result with Mcm4 and with Orc1 was “binds” each time.

B2: Mcm5 R549A (natural protein, Saccharomyces cerevisiae)
chain: MSFDRPEIYSAPVLQGESPNDDDNTEIIKSFKNFILEFRLDSQFIYRDQLRNNILVKNYSLTVNMEHLIGYNEDIYKKLSDEPSDIIPLFETAITQVAKRISILSRAQSANNNDKDPENTSMDTDSLLLNSLPTFQLILNSNANQIPLRDLDSEHVSKIVRLSGIIISTSVLSSRATYLSIMCRNCRHTTSITINNFNSITGNTVSLPRSCLSTIESESSMANESNIGDESTKKNCGPDPYIIIHESSKFIDQQFLKLQEIPELVPVGEMPRNLTMTCDRYLTNKVIPGTRVTIVGIYSIYNSKNGAGSGRSGGGNGGSGVAIRTPYIKILGIQSDVETSSIWNSVTMFTEEEEEEFLQLSRNPKLYEILTNSIAPSIFGNEDIKKAIVCLLMGGSKKILPDGMRLRGDINVLLLGDPGTAKSQLLKFVEKVSPIAVYTSGKGSSAAGLTASVQRDPMTREFYLEGGAMVLADGGVVCIDEFDKMRDEDRVAIHEAMEQQTISIAKAGITTVLNSRTSVLAAANPIYGRYDDLKSPGDNIDFQTTILSAFDMIFIVKDDHNEERDISIANHVINIHTGNANAMQNQQEENGSEISIEKMKRYITYCRLKCAPRLSPQAAEKLSSNFVTIRKQLLINELESTERSSIPITIRQLEAIIRITESLAKLELSPIAQERHVDEAIRLFQASTMDAASQDPIGGLNQASGTSLSEIRRFEQELKRRLPIGWSTSYQTLRREFVDTHRFSQLALDKALYALEKHETIQLRHQGQNIYRSGV
notes: Mcm5, S. cerevisiae; Subunit of m7, written alone for the contacts seen in OC1M^Mcm5RA; also called Mcm5RA; source: S. cerevisiae strain yGC226, purified as a subunit of MCM-Cdt1
On to B2, for which the binding result in the experiment with Mcm2 is on record as “binds”.
